Read-outs that look alike come from different tables or passages of the source. Numbered stars: 1 amine (or outer) side, 2 acyl side, 3 side chain; on linkers, the order of the positions; unused ones are H or OH. Side chains are listed from the residue outwards. Ends that are not written are not given here. * marks the point of attachment. γGlu = O=C(O)[C@H](CCC(=O)[*:2])N[*:1]; Palmitoyl = CCCCCCCCCCCCCCCC(=O)*
T1: human glucose-dependent insulinotropic peptide (gastric inhibitory polypeptide) receptor (human, UniProt P48546 22-466)
T1 sequence (looked up): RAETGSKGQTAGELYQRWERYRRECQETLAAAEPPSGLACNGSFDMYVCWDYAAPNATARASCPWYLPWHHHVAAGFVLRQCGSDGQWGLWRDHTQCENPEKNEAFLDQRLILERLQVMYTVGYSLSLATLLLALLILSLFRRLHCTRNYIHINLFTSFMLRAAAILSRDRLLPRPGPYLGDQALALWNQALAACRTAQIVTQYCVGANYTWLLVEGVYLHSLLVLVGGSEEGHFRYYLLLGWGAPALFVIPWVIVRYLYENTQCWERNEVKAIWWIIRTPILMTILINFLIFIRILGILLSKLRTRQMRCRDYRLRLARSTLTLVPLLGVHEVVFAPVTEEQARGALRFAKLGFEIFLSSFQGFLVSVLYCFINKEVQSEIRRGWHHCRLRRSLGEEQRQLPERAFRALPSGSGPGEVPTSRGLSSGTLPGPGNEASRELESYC

T2: mouse GLP-1 receptor (mouse, UniProt O35659 22-463)
T2 sequence (looked up): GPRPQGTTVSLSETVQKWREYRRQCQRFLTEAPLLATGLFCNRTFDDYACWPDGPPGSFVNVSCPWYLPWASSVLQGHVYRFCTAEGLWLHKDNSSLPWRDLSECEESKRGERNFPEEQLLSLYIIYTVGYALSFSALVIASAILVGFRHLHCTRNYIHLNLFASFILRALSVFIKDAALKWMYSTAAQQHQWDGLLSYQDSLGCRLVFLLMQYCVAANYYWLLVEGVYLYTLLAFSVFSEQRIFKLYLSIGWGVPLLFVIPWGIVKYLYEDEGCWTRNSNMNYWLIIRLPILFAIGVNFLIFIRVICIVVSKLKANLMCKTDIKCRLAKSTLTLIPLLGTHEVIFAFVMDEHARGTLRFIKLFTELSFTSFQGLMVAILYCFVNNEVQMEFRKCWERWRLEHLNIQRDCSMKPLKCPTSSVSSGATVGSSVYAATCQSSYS

T3: rat GLP-1 receptor (rat, UniProt P32301 22-463)
T3 sequence (looked up): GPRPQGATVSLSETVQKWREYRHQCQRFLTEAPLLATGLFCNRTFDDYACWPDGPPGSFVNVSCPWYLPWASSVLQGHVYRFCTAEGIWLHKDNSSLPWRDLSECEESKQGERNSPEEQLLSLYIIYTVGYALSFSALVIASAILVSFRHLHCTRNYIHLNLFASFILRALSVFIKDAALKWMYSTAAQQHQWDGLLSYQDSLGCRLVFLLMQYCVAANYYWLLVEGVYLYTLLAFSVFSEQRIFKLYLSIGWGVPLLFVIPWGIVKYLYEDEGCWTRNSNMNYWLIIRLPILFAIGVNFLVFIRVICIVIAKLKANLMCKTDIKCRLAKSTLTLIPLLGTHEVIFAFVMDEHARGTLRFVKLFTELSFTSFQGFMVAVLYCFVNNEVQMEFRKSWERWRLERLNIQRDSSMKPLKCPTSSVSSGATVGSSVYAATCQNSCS

T4: human glucose-dependent insulinotropic peptide (gastric inhibitory polypeptide) receptor (human) (UniProt P48546)
T4 sequence (looked up): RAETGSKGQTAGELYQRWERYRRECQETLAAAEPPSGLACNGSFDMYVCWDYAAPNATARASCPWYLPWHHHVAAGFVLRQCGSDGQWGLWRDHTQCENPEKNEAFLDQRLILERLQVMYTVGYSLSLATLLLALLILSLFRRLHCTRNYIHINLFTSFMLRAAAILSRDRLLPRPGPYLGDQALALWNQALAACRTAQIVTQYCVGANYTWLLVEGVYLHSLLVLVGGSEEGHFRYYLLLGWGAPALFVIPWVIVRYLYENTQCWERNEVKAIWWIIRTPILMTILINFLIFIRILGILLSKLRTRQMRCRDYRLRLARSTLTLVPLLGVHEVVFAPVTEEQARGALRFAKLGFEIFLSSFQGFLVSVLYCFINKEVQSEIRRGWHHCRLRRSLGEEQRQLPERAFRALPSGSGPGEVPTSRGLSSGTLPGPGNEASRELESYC


Legend:
human GLP-1 receptor [1] = target: T5, human GLP-1 receptor (human, UniProt P43220 24-463); test: cell-based or functional assay
human glucagon receptor [2] = target: T6, human glucagon receptor (human, UniProt P47871 26-477); test: cell-based or functional assay
[3] = target: T1, human glucose-dependent insulinotropic …; test: cell-based or functional assay
[4] = target: human GLP-1 receptor (human) (UniProt P43220); test: cell-based or functional assay
[5] = target: human glucagon receptor (human) (UniProt P47871); test: cell-based or functional assay
[6] = target: human serum albumin (human) (UniProt P02768); test: calculated from the variation in cAMP generation with the HSA concentration
mouse GLP-1 receptor = target: T2, mouse GLP-1 receptor; test: cell-based or functional assay
human GLP-1 receptor [7] = target: T5, human GLP-1 receptor; test: cell-based or functional assay; remark: listed apart in the source
human glucagon receptor [8] = target: T6, human glucagon receptor; test: cell-based or functional assay; remark: listed apart in the source
rat GLP-1 receptor = target: T3, rat GLP-1 receptor; test: cell-based or functional assay
rat glucagon receptor = rat glucagon receptor (rat, UniProt P30082 27-485); test: cell-based or functional assay
mouse glucagon receptor = mouse glucagon receptor (mouse, UniProt Q61606 27-485); test: cell-based or functional assay
human GLP-1 receptor [9] = target: T5, human GLP-1 receptor; test: cell-based or functional assay; remark: listed apart in the source
human GLP-1 receptor [10] = target: T5, human GLP-1 receptor; test: cell-based or functional assay; remark: listed apart in the source
human glucagon receptor [11] = target: T6, human glucagon receptor; test: cell-based or functional assay; remark: listed apart in the source
[12] = target: T1, human glucose-dependent insulinotropic …; test: cell-based or functional assay; remark: listed apart in the source
human GLP-1 receptor [13] = target: T5, human GLP-1 receptor; test: cell-based or functional assay; remark: listed apart in the source
human glucagon receptor [14] = target: T6, human glucagon receptor; test: cell-based or functional assay; remark: listed apart in the source
[15] = target: T1, human glucose-dependent insulinotropic …; test: cell-based or functional assay; remark: listed apart in the source
[16] = target: T4, human glucose-dependent insulinotropic peptide (gastric inhibitory polypeptide) receptor (human); test: cell-based or functional assay

T6 sequence (P47871 26-477): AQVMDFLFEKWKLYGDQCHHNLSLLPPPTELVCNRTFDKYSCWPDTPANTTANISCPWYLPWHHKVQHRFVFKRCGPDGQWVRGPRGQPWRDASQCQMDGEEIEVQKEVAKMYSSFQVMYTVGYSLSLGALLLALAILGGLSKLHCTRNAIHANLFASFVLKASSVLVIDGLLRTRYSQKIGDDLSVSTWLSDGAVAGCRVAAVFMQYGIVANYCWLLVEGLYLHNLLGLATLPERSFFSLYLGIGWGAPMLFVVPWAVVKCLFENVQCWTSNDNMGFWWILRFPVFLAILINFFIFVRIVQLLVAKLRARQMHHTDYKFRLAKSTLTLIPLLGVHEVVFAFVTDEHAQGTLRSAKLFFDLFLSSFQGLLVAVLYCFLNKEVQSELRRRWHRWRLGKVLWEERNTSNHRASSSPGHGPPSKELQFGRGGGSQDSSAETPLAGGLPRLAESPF
rat glucagon receptor, sequence (P30082 27-485): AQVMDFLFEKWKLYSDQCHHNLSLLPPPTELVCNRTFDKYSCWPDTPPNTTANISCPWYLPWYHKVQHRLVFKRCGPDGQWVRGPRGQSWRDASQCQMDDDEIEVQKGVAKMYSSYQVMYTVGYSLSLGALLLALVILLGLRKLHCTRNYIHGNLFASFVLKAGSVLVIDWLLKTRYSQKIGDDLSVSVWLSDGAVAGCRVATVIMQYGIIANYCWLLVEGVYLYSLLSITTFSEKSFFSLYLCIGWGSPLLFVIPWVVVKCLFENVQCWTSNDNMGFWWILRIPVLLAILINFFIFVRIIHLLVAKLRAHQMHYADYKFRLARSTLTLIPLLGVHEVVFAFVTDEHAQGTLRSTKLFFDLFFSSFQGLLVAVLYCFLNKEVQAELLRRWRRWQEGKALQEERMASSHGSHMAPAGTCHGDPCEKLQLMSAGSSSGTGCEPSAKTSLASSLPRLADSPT
human serum albumin (human), sequence (P02768 25-609 limits assumed): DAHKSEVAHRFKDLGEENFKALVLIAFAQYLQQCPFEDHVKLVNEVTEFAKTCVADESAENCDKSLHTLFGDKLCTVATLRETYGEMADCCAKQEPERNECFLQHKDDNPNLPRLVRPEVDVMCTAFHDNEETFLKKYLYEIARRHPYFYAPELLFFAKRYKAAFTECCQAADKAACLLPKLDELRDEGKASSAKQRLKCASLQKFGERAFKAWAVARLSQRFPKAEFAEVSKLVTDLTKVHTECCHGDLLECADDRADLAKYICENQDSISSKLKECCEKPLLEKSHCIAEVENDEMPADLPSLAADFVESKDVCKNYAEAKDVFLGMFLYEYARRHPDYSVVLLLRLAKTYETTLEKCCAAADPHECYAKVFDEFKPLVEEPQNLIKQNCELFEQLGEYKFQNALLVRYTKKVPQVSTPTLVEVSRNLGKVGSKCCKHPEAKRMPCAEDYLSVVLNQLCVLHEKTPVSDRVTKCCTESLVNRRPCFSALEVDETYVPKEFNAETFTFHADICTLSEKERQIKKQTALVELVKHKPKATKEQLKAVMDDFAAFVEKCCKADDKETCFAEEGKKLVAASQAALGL
mouse glucagon receptor, sequence (Q61606 27-485): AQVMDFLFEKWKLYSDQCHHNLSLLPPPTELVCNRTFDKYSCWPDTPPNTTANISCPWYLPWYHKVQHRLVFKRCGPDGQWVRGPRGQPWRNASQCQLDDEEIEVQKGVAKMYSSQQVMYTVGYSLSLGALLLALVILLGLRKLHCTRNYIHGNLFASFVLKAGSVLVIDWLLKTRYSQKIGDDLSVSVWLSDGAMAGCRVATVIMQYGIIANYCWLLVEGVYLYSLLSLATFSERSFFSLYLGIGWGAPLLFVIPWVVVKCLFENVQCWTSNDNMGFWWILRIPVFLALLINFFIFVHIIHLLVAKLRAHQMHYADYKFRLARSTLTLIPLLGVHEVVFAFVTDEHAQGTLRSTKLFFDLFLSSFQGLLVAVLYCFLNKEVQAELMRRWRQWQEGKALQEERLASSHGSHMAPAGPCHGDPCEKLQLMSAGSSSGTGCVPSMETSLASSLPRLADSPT
human GLP-1 receptor (human), sequence (P43220 24-463): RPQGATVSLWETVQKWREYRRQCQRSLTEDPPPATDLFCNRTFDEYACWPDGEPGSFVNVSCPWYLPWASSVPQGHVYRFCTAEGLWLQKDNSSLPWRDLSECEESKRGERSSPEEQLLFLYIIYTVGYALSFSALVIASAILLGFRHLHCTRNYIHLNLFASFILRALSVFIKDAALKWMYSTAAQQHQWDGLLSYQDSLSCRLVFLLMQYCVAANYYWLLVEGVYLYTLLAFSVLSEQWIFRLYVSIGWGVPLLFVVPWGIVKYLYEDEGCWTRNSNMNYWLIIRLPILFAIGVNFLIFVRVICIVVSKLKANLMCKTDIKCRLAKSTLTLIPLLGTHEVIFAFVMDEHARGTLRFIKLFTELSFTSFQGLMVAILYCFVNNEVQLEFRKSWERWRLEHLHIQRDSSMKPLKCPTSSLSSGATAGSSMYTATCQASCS
human glucagon receptor (human), sequence (P47871 26-477): as the sequence (P47871 26-477) above

Row | Binder | cAMP EC50 (assay 1) (human GLP-1 receptor [1]) | cAMP EC50 (assay 1) (human glucagon receptor [2]) | cAMP EC50 (assay 1) [3] | cAMP EC50 (assay 1) [4] | cAMP EC50 (assay 1) [5] | free peptide at 4.4% HSA [6] | cAMP EC50 (assay 2, 4.4% human serum albumin) (human GLP-1 receptor [7]) | cAMP EC50 (assay 2, 4.4% human serum albumin) (human glucagon receptor [8]) | cAMP EC50 (assay 2, 3.2% rat serum albumin) (rat GLP-1 receptor) | cAMP EC50 (assay 2, 3.2% rat serum albumin) (rat glucagon receptor) | cAMP EC50 (assay 2, 3.2% mouse serum albumin) (mouse glucagon receptor) | EC50 at the GLP1R at 0% HSA (calculated) (human GLP-1 receptor [9]) | cAMP EC50 (assay 1) (human GLP-1 receptor [10]) | cAMP EC50 (assay 1) [12] | cAMP EC50 (assay 1) (human GLP-1 receptor [13]) | cAMP EC50 (assay 1) (human glucagon receptor [14]) | cAMP EC50 (assay 1) [15] | also measured
1 | HSQGTFTSDK([γGlu-Palmitoyl])SSYLDSRSARDFVAWLEAGG-OH (N-terminus assumed; SMILES CCCCCCCCCCCCCCCC(=O)N[C@@H](CCC(=O)NCCCC[C@H](NC(=O)[C@H](CC(=O)O)NC(=O)[C@H](CO)NC(=O)[C@@H](NC(=O)[C@H](Cc1ccccc1)NC(=O)[C@@H](NC(=O)CNC(=O)[C@H](CCC(N)=O)NC(=O)[C@H](CO)NC(=O)[C@@H](N)Cc1c[nH]cn1)[C@@H](C)O)[C@@H](C)O)C(=O)N[C@@H](CO)C(=O)N[C@@H](CO)C(=O)N[C@@H](Cc1ccc(O)cc1)C(=O)N[C@@H](CC(C)C)C(=O)N[C@@H](CC(=O)O)C(=O)N[C@@H](CO)C(=O)N[C@@H](CCCNC(=N)N)C(=O)N[C@@H](CO)C(=O)N[C@@H](C)C(=O)N[C@@H](CCCNC(=N)N)C(=O)N[C@@H](CC(=O)O)C(=O)N[C@@H](Cc1ccccc1)C(=O)N[C@H](C(=O)N[C@@H](C)C(=O)N[C@@H](Cc1c[nH]c2ccccc12)C(=O)N[C@@H](CC(C)C)C(=O)N[C@@H](CCC(=O)O)C(=O)N[C@@H](C)C(=O)NCC(=O)NCC(=O)O)C(C)C)C(=O)O) [G973] | 0.012 nM | 0.0089 nM | 47 nM |  |  |  |  |  |  |  |  |  |  |  |  |  |  | 
2 | HSQGTFTSDYSKYLDSRRAQDFVQWLVAGGPSSGAPPPSK-NH2 [g319] |  |  |  | 0.0361 nM | 0.0104 nM |  |  |  |  |  |  |  |  |  |  |  |  | 
3 | HSQGTFTSDYSKK([γGlu-Palmitoyl])LDSERARDFVAWLVAGG-NH2 (N-terminus assumed; SMILES CCCCCCCCCCCCCCCC(=O)N[C@@H](CCC(=O)NCCCC[C@H](NC(=O)[C@H](CCCCN)NC(=O)[C@H](CO)NC(=O)[C@H](Cc1ccc(O)cc1)NC(=O)[C@H](CC(=O)O)NC(=O)[C@H](CO)NC(=O)[C@@H](NC(=O)[C@H](Cc1ccccc1)NC(=O)[C@@H](NC(=O)CNC(=O)[C@H](CCC(N)=O)NC(=O)[C@H](CO)NC(=O)[C@@H](N)Cc1c[nH]cn1)[C@@H](C)O)[C@@H](C)O)C(=O)N[C@@H](CC(C)C)C(=O)N[C@@H](CC(=O)O)C(=O)N[C@@H](CO)C(=O)N[C@@H](CCC(=O)O)C(=O)N[C@@H](CCCNC(=N)N)C(=O)N[C@@H](C)C(=O)N[C@@H](CCCNC(=N)N)C(=O)N[C@@H](CC(=O)O)C(=O)N[C@@H](Cc1ccccc1)C(=O)N[C@H](C(=O)N[C@@H](C)C(=O)N[C@@H](Cc1c[nH]c2ccccc12)C(=O)N[C@@H](CC(C)C)C(=O)N[C@H](C(=O)N[C@@H](C)C(=O)NCC(=O)NCC(N)=O)C(C)C)C(C)C)C(=O)O) [G730] |  |  |  |  |  | 0.85% | 0.455 nM | 0.402 nM | 0.081 nM | 45.1 nM | 5.46 nM | 0.007 nM | 0.0395 nM | 56.6 nM | 0.018 nM | 0.00623 nM | 45 nM | cAMP EC50 (assay 2, 3.2% mouse serum albumin) (mouse GLP-1 receptor): 1.1 nM; cAMP EC50 (assay 1) (human glucagon receptor [11]): 0.015 nM
4 | HSQGTFTSDYSKYLDSRRAQDFVQWLVAGGPSSGAPPPSK(Palmitoyl)-NH2 [g320] |  |  |  | 0.00938 nM | 0.0032 nM |  |  |  |  |  |  |  |  |  |  |  |  | cAMP EC50 (assay 1) [16]: 1.01 nM
5 | HSQGTFTSDKSRYLDSRSARDFVAWLEAGG (X10 = K(gE-palm); C-terminal amide) [G849] |  |  |  |  |  | 0.48% | 0.172 nM | 0.079 nM | 0.044 nM | 4.05 nM | 0.103 nM | 0.002 nM | 0.00907 nM | 18.1 nM | 0.009 nM | 0.00226 nM | 17 nM | 
6 | HSQGTFTSDK([γGlu-Palmitoyl])SKYLEGQAAKEFIAWLEKGR-OH (N-terminus assumed; SMILES CCCCCCCCCCCCCCCC(=O)N[C@@H](CCC(=O)NCCCC[C@H](NC(=O)[C@H](CC(=O)O)NC(=O)[C@H](CO)NC(=O)[C@@H](NC(=O)[C@H](Cc1ccccc1)NC(=O)[C@@H](NC(=O)CNC(=O)[C@H](CCC(N)=O)NC(=O)[C@H](CO)NC(=O)[C@@H](N)Cc1c[nH]cn1)[C@@H](C)O)[C@@H](C)O)C(=O)N[C@@H](CO)C(=O)N[C@@H](CCCCN)C(=O)N[C@@H](Cc1ccc(O)cc1)C(=O)N[C@@H](CC(C)C)C(=O)N[C@@H](CCC(=O)O)C(=O)NCC(=O)N[C@@H](CCC(N)=O)C(=O)N[C@@H](C)C(=O)N[C@@H](C)C(=O)N[C@@H](CCCCN)C(=O)N[C@@H](CCC(=O)O)C(=O)N[C@@H](Cc1ccccc1)C(=O)N[C@H](C(=O)N[C@@H](C)C(=O)N[C@@H](Cc1c[nH]c2ccccc12)C(=O)N[C@@H](CC(C)C)C(=O)N[C@@H](CCC(=O)O)C(=O)N[C@@H](CCCCN)C(=O)NCC(=O)N[C@@H](CCCNC(=N)N)C(=O)O)[C@@H](C)CC)C(=O)O) [G934] | 0.018 nM | 0.0063 nM | 3.6 nM |  |  |  |  |  |  |  |  |  |  |  |  |  |  | 
